The results in this text go back to patent US7657380.

The target in assay [1] is GST-fused human V158 FcγRIIIa (extracellular region) (human) (UniProt P08637). In words: SPR, GST-FcγRIIIa V158 on chip.
For assay [2] the target is unchanged. In words: AlphaScreen competition vs biotin-WT AC10. A general note: In Alpha technology, singlet oxygen from a donor bead excites a nearby acceptor bead.

Chain of GST-fused human V158 FcγRIIIa (extracellular region) (human) (P08637 17-208 F176V): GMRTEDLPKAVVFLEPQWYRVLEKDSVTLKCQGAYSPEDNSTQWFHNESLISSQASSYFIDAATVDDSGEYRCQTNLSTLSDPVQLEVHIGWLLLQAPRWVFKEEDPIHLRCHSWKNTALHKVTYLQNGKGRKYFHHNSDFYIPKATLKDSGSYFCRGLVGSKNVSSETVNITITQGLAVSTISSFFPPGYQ

By Kd is commonly meant the concentration at which binding is half-saturated. The low end stands for a tighter complex, the high end for a looser complex. For orientation: IC50 means the concentration needed to halve the response being measured. Read a high IC50 as lower potency. Substance AC10 WT (H0/L0) full length antibody showed a Kd in assay [1] of 18.6 nM. This substance also returned an IC50 in assay [2] of 87.2 nM.
